Data published in patent publication US20220323607A1, “SYNTHETIC NANOCARRIERS COMPRISING AN IMMUNOSUPPRESSANT IN COMBINATION WITH HIGH AFFINITY IL-2 RECEPTOR AGONISTS TO ENHANCE IMMUNE TOLERANCE” (Selecta Biosciences, Inc., priority 2021, published 2022).

System: Ovalbumin-specific OTII T cells
Assay: Adoptive transfer of ovalbumin-specific OTII T cells, Foxp3 expression (Example 5)
Type: in vivo
Settings: mice with adoptively transferred OTII T cells; starting from ~3%
Procedure: However, expansion of antigen-specific Treg can be more desirable than expansion of total Treg. The ability of ImmTOR plus antigen combined with IL-2 mutein to induce and/or expand antigen-specific Treg was evaluated. Ovalbumin-specific OTII T cells were adoptively transferred into mice prior to treatment with ovalbumin and ImmTOR and/or IL-2 mutein.

B1: ovalbumin (protein, UniProt P01012 2-386, looked up)
Ovalbumin: GSIGAASMEFCFDVFKELKVHHANENIFYCPIAIMSALAMVYLGAKDSTRTQINKVVRFDKLPGFGDSIEAQCGTSVNVHSSLRDILNQITKPNDVYSFSLASRLYAEERYPILPEYLQCVKELYRGGLEPINFQTAADQARELINSWVESQTNGIIRNVLQPSSVDSQTAMVLVNAIVFKGLWEKAFKDEDTQAMPFRVTEQESKPVQMMYQIGLFRVASMASEKMKILELPFASGTMSMLVLLPDEVSGLEQLESIINFEKLTEWTSSNVMEERKIKVYLPRMKMEEKYNLTSVLMAMGITDVFSSSANLSGISSAESLKISQAVHAAHAEINEAGREVVGSAEAGVDAASVSEEFRADHPFLFCIKHIATNAVLFFGRCVSP
percentage of Foxp3+ OTII cells: ~6%
